Experimental data reported in publication PMC12264004, “Super-resolution imaging of native fluorescent photoreceptors in chytrid fungal eyes” (The EMBO Journal, 2025).

B1: RGC1-cat (Rhizoclosmatium globosum) (protein)
chain: NGAEEYASVTVFFSDITNFVALSGKSSTKDMLATLNKLWVEYDVICKRWGVYKVETIGDAFLGVVGAPDRIPDHAERAANFAIDVIRMVQDFRTVNDEEIVTRIGLNSGPITAGILGDSNPHWCIVGDAVNTASRMESTSKPMRIHISENTYKLINGKGFKLEGPDVMNIKGKGTMNTYWINGRG
notes: soluble catalytic domain aa 365-551, C-terminal His-tag, E. coli ArcticExpress (DE3), 24,997 g/mol, homodimer
B2: RGC1-cat/NeoR-cat (Rhizoclosmatium globosum) (protein)
chain 1: B1 chain
chain 2: TGAEEYSCVTVFFSDIANFTPLSQRTSTKDMLASLNNMWIEYDKISKKWGMYKVETIGDAFLGVVGAPDRVPDHAERAAEFSIDIIDMIKDFRLVTGEPIQIRAGLNSGPVTAGILGESNPHWCIVGDTVTIASKMEATSKHMKIHIAESTFNLIKSSGKFRTSDSEPVTIKGNVINTFFIEGRA
notes: equimolar mixture of purified C-terminally His-tagged catalytic domains (E. coli); heterodimer, some RGC1-cat homodimer remains
B3: RGC2-cat/NeoR-cat (Rhizoclosmatium globosum) (protein)
chain 1: ATGSEEYSSVTVFFSDVTNFHALSNKNSTKEMLATLNKLWIEYDVICKRWGVYKVETIGDAFLGVVGAPERVPDHAERAANFAVDVISMVQDFRTDKGEELITRVGLNSGPITAGILGDSNPHWCIVGDAVNTASRMESTSKPMRIHISENTYKLIKNKGFRLEGPDVMNIKGKGTMNTYWINGRS
chain 2: B2 chain 2
notes: equimolar mixture of purified C-terminally His-tagged catalytic domains (E. coli); heterodimer

Experiments:
[1] = tested on: T1, CaRGC (homodimeric, full-length); assay: cGMP by reverse-phase HPLC, Hill fit, crude membranes; type: biochemical, Catenaria anguillulae; details: light-triggered; 10 mM MgCl2; HEPES pH 7.4
T1 construct: homodimer; crude membrane fraction (HEK293T); gene as used in Scheib et al 2018

[2] = substrate: Nc1nc2c(ncn2[C@@H]2O[C@H](COP(=O)(O)OP(=O)(O)OP(=O)(O)O)[C@@H](O)[C@H]2O)c(=O)[nH]1; assay: cGMP by reverse-phase HPLC, Hill fit; type: biochemical, Rhizoclosmatium globosum; details: GTP:MnCl2 1:2

Molecule	Km ([2]; equimolar mixture)	further results
Nc1nc2c(ncn2[C@@H]2O[C@H](COP(=O)(O)OP(=O)(O)OP(=O)(O)O)[C@@H](O)[C@H]2O)c(=O)[nH]1 [GTP]		Km [1]: 470 ± 50 µM
B1		Km [2]: 5530 µM
B2	1540 µM	
B3	980 µM	
